# B1: library; numbered along this chain (parent)
# chain: MRKPRAAVGSGHRKQAASQEGRQKHAKNNSQAKPSACDGLARQPEEVVLQASVSSYHLFRDVAEVTAFRGSLLSWYDQEKRDLPWRRRAEDEMDLDRRAYAVWVSEVMLQQTQVATVINYYTGWMQKWPTLQDLASASLEEVNQLWAGLGYYSRGRRLQEGARKVVEELGGHMPRTAETLQQLLPGVGRYTAGAIASIAFGQATGVVDGNVARVLCRVRAIGADPSSTLVSQQLWGLAQQLVDPARPGDFNQAAMELGATVCTPQRPLCSQCPVESLCRARQRVEQEQLLASGSLSGSPDVEECAPNTGQCHLCLPPSEPWDQTLGVVNFPRKASRKPPREESSATCVLEQPGALGAQILLVQRPNSGLLAGLWEFPSVTWEPSEQLQRKALLQELQRWAGPLPATHLRHLGEVVHTFSHIKLTYQVYGLALEGQTPVTTVPPGARWLTQEEFHTAAVSTAMKKVFRVYQGQQPGTCMGSKRSQVSSPCSRKKPRMGQQVLDNFFRSHISTDAHSLNSAAQ
# Variants of: B1
# Experiment: 8OG:A repair function score (normalized; synonymous = 0, nonsense = -1) (normalized log-likelihood score); higher = more repair activity (WT-like)
# Settings: with 8OG:A DNA repair reporter (GFP) in HEK-293 MUTYH KO cells
# Summary of the method: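 After 72 h, viable mCherry+ cells were split into GFP+ (repair) and GFP− bins in three replicates per tile. These cells were MUTYH knockout HEK-293 cells holding lentiviral MUTYH cDNA NNN codon-scan libraries, kept in 10 pg/ml doxycycline and co-transfected with mCherry plus an 8OG:A GFP repair reporter. Sequencing of tile amplicons gave per-tile Rosace fitness scores, normalized into a repair function score anchored on synonymous and nonsense distributions. Synonymous medians were fixed at 0, nonsense at -1, and variants under 300 counts per million at the start were removed.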
# 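Further: cells sorted at 72 h after reporter transfection.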
row,Variant,8OG:A repair function score
1,MRKPRAAVGSGHRKQAASQEGRQKHAKNNSQAKPSACDGLARQPEEVVLQASVSSYHLFRDVAEVTAFRGSLLSWYDQEKRDLPWRRRAEDEMDLDRRAYAVWVSEVMLQQTQVATVINYYTGWMQKWPTLQDLASASLEEVNQLWAGLGYYSRGRRLQEGARKVVEELGGHMPRTAETLQQLLPGVGRYTAGAIASIAFGQATGVVDGNVARVLCRVRAIGADPSSTLVSQQLWGLAQQLVDPARPGDFNQAAMELGATVCTPQRPLCSQCPVESLCRARQRVEQEQLLASGSLSGSPDVEECAPNTGQCHLCLPPSEPWDQTLGVVNFPRKASRKPPREESSATCVLEQPGALGAQILLVQRPNSGLLAGLWEFPSVTWEPSEQLQRKALLQELQRWAGPLPATHLRHLGEVVHTFSHIKLTYQVYGLALEGQTPVTTVPPQARWLTQEEFHTAAVSTAMKKVFRVYQGQQPGTCMGSKRSQVSSPCSRKKPRMGQQVLDNFFRSHISTDAHSLNSAAQ [G444Q],-0.113
2,MRKPRAAVGSGHRKQAASQEGRQKHAKNNSQAKPSACDGLARQPEEVVLQASVSSYHLFRDVAEVTAFRGSLLSWYDQEKRDLPWRRRAEDEMDLDRRAYAVWVSEVMLQQTQVATVINYYTGWMQKWPTLQDLASASLEEVNQLWAGLGYYSRGRRLQEGARKVVEELGGHMPRTAETLQQLLPGVGRYTAGAIASIAFGQATGVVDGNVARVLCRVRAIGADPSSTLVSQQLWGLAQQLVDPARPGDFNQAAMELGATVCTPQRPLCSQCPVESLCRARQRVEQCQLLASGSLSGSPDVEECAPNTGQCHLCLPPSEPWDQTLGVVNFPRKASRKPPREESSATCVLEQPGALGAQILLVQRPNSGLLAGLWEFPSVTWEPSEQLQRKALLQELQRWAGPLPATHLRHLGEVVHTFSHIKLTYQVYGLALEGQTPVTTVPPGARWLTQEEFHTAAVSTAMKKVFRVYQGQQPGTCMGSKRSQVSSPCSRKKPRMGQQVLDNFFRSHISTDAHSLNSAAQ [E287C],-0.037
3,MRKPRAAVGSGHRKQAASQEGRQKHAKNNSQAKPSACDGLARQPEEVVLQASVSSYHLFRDVAEVTAFRGSLLSWYDQEKRDLPWRRRAEDEMDLDRRAYAVWVSEVMLQQTQVATVINYYTGWMQKWPTLQDLASASLEEVNQLWAGLGYYSRGRRLQEGARKVVEELGGHMPRTAETLQQLLPGVGRYTAGAIASIAFGQATGVVDGNVARVLCRVRAIGADPSSTLVSQQLWGLAQQLVDPARPGDFNQAAMELGATVCTPQRPLCSQCPVESLCRARQRVEQETLLASGSLSGSPDVEECAPNTGQCHLCLPPSEPWDQTLGVVNFPRKASRKPPREESSATCVLEQPGALGAQILLVQRPNSGLLAGLWEFPSVTWEPSEQLQRKALLQELQRWAGPLPATHLRHLGEVVHTFSHIKLTYQVYGLALEGQTPVTTVPPGARWLTQEEFHTAAVSTAMKKVFRVYQGQQPGTCMGSKRSQVSSPCSRKKPRMGQQVLDNFFRSHISTDAHSLNSAAQ [Q288T],0.00195
4,MRKPRAAVGSGHRKQAASQEGRQKHAKNNSQAKPSACDGLARQPEEVVLQASVSSYHLFRDVAEVTAFRGSLLSWYDQEKRDLPWRRRAEDEMDLDRRAYAVWVSEVMLQQTQVATVINYYTGWMQKWPTLQDLASASLEEVNQLWAGLGYYSRGRRLQEGARKVVEELGGHMPRTAETLQQLLPGVGRYTAGAIASIAFGQATGVVDGNVARVLCRVRAIGADPSSTLVSRQLWGLAQQLVDPARPGDFNQAAMELGATVCTPQRPLCSQCPVESLCRARQRVEQEQLLASGSLSGSPDVEECAPNTGQCHLCLPPSEPWDQTLGVVNFPRKASRKPPREESSATCVLEQPGALGAQILLVQRPNSGLLAGLWEFPSVTWEPSEQLQRKALLQELQRWAGPLPATHLRHLGEVVHTFSHIKLTYQVYGLALEGQTPVTTVPPGARWLTQEEFHTAAVSTAMKKVFRVYQGQQPGTCMGSKRSQVSSPCSRKKPRMGQQVLDNFFRSHISTDAHSLNSAAQ [Q232R],0.171
5,MRKPRAAVGSGHRKQAASQEGRQKHAKNNSQAKPSACDGLARQPEEVVLQASVSSYHLFRDVAEVTAFRGSLLSWYDQEKRDLPWRRRAEDEMDLDRRAYAVWVSEVMLQQTQVATVINYYTGWMQKWPTLQDLASASLEEVNQLWAGLGYYSRGRRLQEGARKVVEELGGHMPRTAETLQQLLPGVGRYTAGAIASIAFGQATGVVDGNVARVLCRVRAIGADPSSTLVSQQLWGLAQQLVDPARPGGFNQAAMELGATVCTPQRPLCSQCPVESLCRARQRVEQEQLLASGSLSGSPDVEECAPNTGQCHLCLPPSEPWDQTLGVVNFPRKASRKPPREESSATCVLEQPGALGAQILLVQRPNSGLLAGLWEFPSVTWEPSEQLQRKALLQELQRWAGPLPATHLRHLGEVVHTFSHIKLTYQVYGLALEGQTPVTTVPPGARWLTQEEFHTAAVSTAMKKVFRVYQGQQPGTCMGSKRSQVSSPCSRKKPRMGQQVLDNFFRSHISTDAHSLNSAAQ [D249G],-0.675
6,MRKPRAAVGSGHRKQAASQEGRQKHAKNNSQAKPSACDGLARQPEEVVLQASVSSYHLFRDVAEVTAFRGSLLSWYDQEKRDLPWRRRADDEMDLDRRAYAVWVSEVMLQQTQVATVINYYTGWMQKWPTLQDLASASLEEVNQLWAGLGYYSRGRRLQEGARKVVEELGGHMPRTAETLQQLLPGVGRYTAGAIASIAFGQATGVVDGNVARVLCRVRAIGADPSSTLVSQQLWGLAQQLVDPARPGDFNQAAMELGATVCTPQRPLCSQCPVESLCRARQRVEQEQLLASGSLSGSPDVEECAPNTGQCHLCLPPSEPWDQTLGVVNFPRKASRKPPREESSATCVLEQPGALGAQILLVQRPNSGLLAGLWEFPSVTWEPSEQLQRKALLQELQRWAGPLPATHLRHLGEVVHTFSHIKLTYQVYGLALEGQTPVTTVPPGARWLTQEEFHTAAVSTAMKKVFRVYQGQQPGTCMGSKRSQVSSPCSRKKPRMGQQVLDNFFRSHISTDAHSLNSAAQ [E90D],0.000961
7,MRKPRAAVGSGHRKQAASQEGRQKHAKNNSQAKPSACDGLARQPEEVVLQASVSSYHLFRDVAEVTAFRGSLLSWYDQEKRDLPWRRRAEDEMDLDRRAYAVWVSEVMLQQTQVATVINYYTGWMQKWPTLQDLASASLEEVNQLWAGLGYYSRGRRLQEGARKVVEELGGHMPRTAETLQQLLPGVGRYTAGAIASIAFGQATGVVDGNVARVLCRVRAIGADPSSTLVSQQLWGLAQQLVDPARPGDFNQAAMELGATVCTPQRPLCSQCPVESLCRARQRVEQEQLLASGSLSGSPDVEECAPNTGQCHLCLPPSEPWDQTLGVVNFPRKASRKPPREESSATCVLEQPGALGAQILLVQRPNSGLLAGLWEFPSVTWEPSEQLQRKALLQELQRWAGPLPATHLRHLGYVVHTFSHIKLTYQVYGLALEGQTPVTTVPPGARWLTQEEFHTAAVSTAMKKVFRVYQGQQPGTCMGSKRSQVSSPCSRKKPRMGQQVLDNFFRSHISTDAHSLNSAAQ [E413Y],-0.109
8,MRKPRAAVGSGHRKQAASQEGRQKHAKNNSQAKPSACDGLARQPEEVVLQASVSSYHLFRDVAEVTAFRGSLLSWYDQEKRDLPWRRRAEDEMDLDRRAYAVWVSEVMLQQTQVATVINYYTGWMQKWPTLQDLASASLEEVNQLWAGLGYYSRGRRLQEGARKVVEELGGHMPRTAETLQQLLPGVGRYTAGAIASIAFGQATGVVDGNVARVLCRVRAIGADPSSTLVSQQLWGLAQQLVDPARPGDFNQAAMELGATVCTPQRPLCSQCPVESLCRARQRVEQEQLLASGSLSGSPDVEECAPNTGQCHLCLPPSEPWDQTLGVVNFPRKASRKPPREESSATCVLEQPGALGAQILLVQRPNSGLLAGLWEFPSVTWEPSEQLQRKALLQELQRWAGPLPAGHLRHLGEVVHTFSHIKLTYQVYGLALEGQTPVTTVPPGARWLTQEEFHTAAVSTAMKKVFRVYQGQQPGTCMGSKRSQVSSPCSRKKPRMGQQVLDNFFRSHISTDAHSLNSAAQ [T406G],-0.00238
9,MRKPRAAVGSGHRKQAASQEGRQKHAKNNSQAKPSACDGRARQPEEVVLQASVSSYHLFRDVAEVTAFRGSLLSWYDQEKRDLPWRRRAEDEMDLDRRAYAVWVSEVMLQQTQVATVINYYTGWMQKWPTLQDLASASLEEVNQLWAGLGYYSRGRRLQEGARKVVEELGGHMPRTAETLQQLLPGVGRYTAGAIASIAFGQATGVVDGNVARVLCRVRAIGADPSSTLVSQQLWGLAQQLVDPARPGDFNQAAMELGATVCTPQRPLCSQCPVESLCRARQRVEQEQLLASGSLSGSPDVEECAPNTGQCHLCLPPSEPWDQTLGVVNFPRKASRKPPREESSATCVLEQPGALGAQILLVQRPNSGLLAGLWEFPSVTWEPSEQLQRKALLQELQRWAGPLPATHLRHLGEVVHTFSHIKLTYQVYGLALEGQTPVTTVPPGARWLTQEEFHTAAVSTAMKKVFRVYQGQQPGTCMGSKRSQVSSPCSRKKPRMGQQVLDNFFRSHISTDAHSLNSAAQ [L40R],0.0698
10,MRKPRAAVGSGHRKQAASQEGRQKHAKNNSQAKPSACDGWARQPEEVVLQASVSSYHLFRDVAEVTAFRGSLLSWYDQEKRDLPWRRRAEDEMDLDRRAYAVWVSEVMLQQTQVATVINYYTGWMQKWPTLQDLASASLEEVNQLWAGLGYYSRGRRLQEGARKVVEELGGHMPRTAETLQQLLPGVGRYTAGAIASIAFGQATGVVDGNVARVLCRVRAIGADPSSTLVSQQLWGLAQQLVDPARPGDFNQAAMELGATVCTPQRPLCSQCPVESLCRARQRVEQEQLLASGSLSGSPDVEECAPNTGQCHLCLPPSEPWDQTLGVVNFPRKASRKPPREESSATCVLEQPGALGAQILLVQRPNSGLLAGLWEFPSVTWEPSEQLQRKALLQELQRWAGPLPATHLRHLGEVVHTFSHIKLTYQVYGLALEGQTPVTTVPPGARWLTQEEFHTAAVSTAMKKVFRVYQGQQPGTCMGSKRSQVSSPCSRKKPRMGQQVLDNFFRSHISTDAHSLNSAAQ [L40W],0.123
11,MRKPRAAVGSGHRKQAASQEGRQKHAKNNSQAKPSACDGLARQPEEVVLQASVSSYHLQRDVAEVTAFRGSLLSWYDQEKRDLPWRRRAEDEMDLDRRAYAVWVSEVMLQQTQVATVINYYTGWMQKWPTLQDLASASLEEVNQLWAGLGYYSRGRRLQEGARKVVEELGGHMPRTAETLQQLLPGVGRYTAGAIASIAFGQATGVVDGNVARVLCRVRAIGADPSSTLVSQQLWGLAQQLVDPARPGDFNQAAMELGATVCTPQRPLCSQCPVESLCRARQRVEQEQLLASGSLSGSPDVEECAPNTGQCHLCLPPSEPWDQTLGVVNFPRKASRKPPREESSATCVLEQPGALGAQILLVQRPNSGLLAGLWEFPSVTWEPSEQLQRKALLQELQRWAGPLPATHLRHLGEVVHTFSHIKLTYQVYGLALEGQTPVTTVPPGARWLTQEEFHTAAVSTAMKKVFRVYQGQQPGTCMGSKRSQVSSPCSRKKPRMGQQVLDNFFRSHISTDAHSLNSAAQ [F59Q],-0.967
12,MRKPRAAVGSGHRKQAASQEGRQKHAKNNSQAKPSACDGLARQPEEVVLQASVSSYHLFRDVAEVTAFRGSLLSWYDQEKRDLPWRRRAEDEMDLDRRAYAVWVSEVMLQQTQVATVINYYTGWMQKWPTLQDLASASLEEVNQLWAGLGYYSRGRRLQEGARKVVEELGGHMPRTAETLQQLLPGVGRYTAGAIASIAFGQATGVVDGNVARVLCRVRAIGADPSSTLVSQQLWGLAQQLVDPARPGDFNQAAMELGATVCTPQRPLCSQCPVESLCRARQRVEQEQLLASGSLSGSPDVEECAPNTGQCHLCLPPSEPWDQTLGVVNFPRKASRKPPREESSATCVLEQPGALGAQILLVQRPNSGLLAGLWEFPSVTWEPSEQLQRKALLQELQRWAGPLPATHLRHLGEVVHTFSHIKLTYQVYGLALEGQTPVTTVPPGARWLTQEEFHTAAVSTAMKKVFRVYQGQQPGTCMGSKRSQVSSPCSRKKPRMGQQVLDCFFRSHISTDAHSLNSAAQ [N503C],0.00549
